Experimental data reported in article PMC8835902, “DNA Polymerase-Parental DNA Interaction Is Essential for Helicase-Polymerase Coupling during Bacteriophage T7 DNA Replication”.

Tests used:
[1] = biological target: WTgp5 (T7 DNA polymerase, exo-);thioredoxin (trx) (bacteriophage T7;Escherichia coli?, UniProt P00581;P0AA25 1-704;1-109, D5A;E7A|); assay: EMSA; 20 mM Hepes pH 7.5, 1 mM EDTA, 100 mM KCl, 0.1 mM bME, 5% glycerol, 0.10 mg/mL BSA, 10 nM DNA, 25 C (30 min; 15 min + 15 min for supershift); details: protein: recombinant;recombinant, tags: ;, copies: 1;1, label: 5' Cy5 on primer
WAgp5;thioredoxin (trx) [2] = biological target: T1, WAgp5;thioredoxin (trx) (bacteriophage T7;Escherichia coli?, UniProt P00581;P0AA25 1-704;1-109, D5A;E7A;W579A|); assay: EMSA; similar to WTgp5; 20 mM Hepes pH 7.5, 1 mM EDTA, 100 mM KCl, 0.1 mM bME, 5% glycerol, 0.10 mg/mL BSA, 10 nM DNA, 25 C (30 min; 15 min + 15 min for supershift); details: protein: recombinant;recombinant; tags: ;; copies: 1;1; label: 5' Cy5 on primer; primer-template, 26 bp duplex, 32 nt 5' template overhang
WAgp5;thioredoxin (trx) [3] = biological target: T1, WAgp5;thioredoxin (trx); assay: EMSA; 1 and 0 gap affinities similar; 20 mM Hepes pH 7.5, 1 mM EDTA, 100 mM KCl, 0.1 mM bME, 5% glycerol, 0.10 mg/mL BSA, 10 nM DNA, 25 C (30 min; 15 min + 15 min for supershift); details: protein: recombinant;recombinant, tags: ;, copies: 1;1, label: 5' Cy5 on primer
EQgp4 (T7 helicase) = EQgp4 (T7 helicase) (bacteriophage T7, UniProt P03692 1-566, E343Q); assay: EMSA; dTTP; 20 mM Hepes pH 7.5, 1 mM EDTA, 100 mM KCl, 0.1 mM bME, 5% glycerol, 0.10 mg/mL BSA, 10 nM DNA, 25 C (30 min; 15 min + 15 min for supershift); details: protein: recombinant; tags: His tag removed (PreScission); chain copies: 6; label: 5' Cy5 on primer; fork 1:2 2:3, 2 nt ssDNA gap between primer end and fork
[4] = biological target: EQgp4 (T7 helicase);K3Dgp5;thioredoxin (trx) (bacteriophage T7;bacteriophage …, UniProt P03692;P00581;P0AA25 1-566;1-704;1-109, E343Q|D5A;E7A;K545D;K549D;K553D|); assay: EMSA; K3Dgp5-trx stimulates EQgp4 binding; 20 mM Hepes pH 7.5, 1 mM EDTA, 100 mM KCl, 0.1 mM bME, 5% glycerol, 0.10 mg/mL BSA, 10 nM DNA, 25 C (30 min; 15 min + 15 min for supershift); details: protein: recombinant;recombinant;recombinant; tags: His tag removed (PreScission);;; chain copies: 6;1;1; label: 5' Cy5 on primer; fork 1:2 2:3, 2 nt ssDNA gap between primer end and fork
EQgp4deltaC = EQgp4deltaC (bacteriophage T7, UniProt P03692 1-549, E343Q); assay: EMSA; 20 mM Hepes pH 7.5, 1 mM EDTA, 100 mM KCl, 0.1 mM bME, 5% glycerol, 0.10 mg/mL BSA, 10 nM DNA, 25 C (30 min; 15 min + 15 min for supershift); details: protein: recombinant; tags: His tag removed (PreScission); chain copies: 6; label: 5' Cy5 on primer; fork 1:2 2:3, 2 nt ssDNA gap between primer end and fork
[5] = biological target: EQgp4 (T7 helicase);WTgp5 (T7 DNA polymerase, exo-);thioredoxin (trx) (bacteriophage T7;bacteriophage …, UniProt P03692;P00581;P0AA25 1-566;1-704;1-109, E343Q|D5A;E7A|); assay: EMSA; EQgp4 titrated onto DNA pre-bound to WTgp5-trx (60-100 nM); 20 mM Hepes pH 7.5, 1 mM EDTA, 100 mM KCl, 0.1 mM bME, 5% glycerol, 0.10 mg/mL BSA, 10 nM DNA, 25 C (30 min; 15 min + 15 min for supershift); details: protein: recombinant;recombinant;recombinant; tags: His tag removed (PreScission);;; chain copies: 6;1;1; label: 5' Cy5 on primer; fork 1:2 2:3, 2 nt ssDNA gap between primer end and fork

B1: Linear template-58nt (dsDNA)
DNA 1: GGATTATTTACATTGGCAGATTCACC
DNA 2: TTATTAGTTATGATATTCATGTATAGTTATATGGTGAATCTGCCAATGTAAATAATCC
Kd ([1]; primer-template, 26 bp duplex, 32 nt 5' template overhang): 53 nM | binding result (WAgp5;thioredoxin (trx) [2]): binds

B2: Fork template 1gap (mixed)
DNA 1: GGATTATTTACATTGGCAGATTCACC
DNA 2: TTATTAGTTATGATATTCATGTATAGTTATATGGTGAATCTGCCAATGTAAATAATCC
DNA 3: TATTCATGTATAGTTATGTAGAGTCCGAGATCCGCGCTGCCAGTCGGCAGAGCC
Kd ([1]; fork 1:2 2:3, 1 nt ssDNA gap): 63 nM | binding result (WAgp5;thioredoxin (trx) [3]; fork 1:2 2:3, 1 nt ssDNA gap): binds

B3: Fork template 0gap (mixed)
DNA 1: GGATTATTTACATTGGCAGATTCACC
DNA 2: TTATTAGTTATGATATTCATGTATAGTTATATGGTGAATCTGCCAATGTAAATAATCC
DNA 3: TATTCATGTATAGTTATGTAGAGACCGAGATCCGCGCTGCCAGTCGGCAGAGCC
Kd ([1]; fork 1:2 2:3, no gap): 110 nM | binding result (WAgp5;thioredoxin (trx) [3]; fork 1:2 2:3, no gap): binds

B4: Fork template 2gap (mixed)
DNA 1: GGATTATTTACATTGGCAGATTCACC
DNA 2: TTATTAGTTATGATATTCATGTATAGTTATATGGTGAATCTGCCAATGTAAATAATCC
DNA 3: TATTCATGTATAGTTATGTAGAGTTCCGAGATCCGCGCTGCCAGTCGGCAGAGCC
Kd (EQgp4 (T7 helicase)): 24 nM | binding result [4]: binds | Kd ([1]; fork 1:2 2:3, 2 nt ssDNA gap between primer end and fork): 36 nM | Kd (EQgp4deltaC): 30 nM | Kd [5]: 8 nM
